The DeepSol protein solubility set

experiment: soluble on expression in E. coli; label from the status in PepcDB or PDB records

| Sequence | soluble on expression in E. coli |
| --- | --- |
| MSSTECYGAPPHNYYQDWPTTHSYYPSVPSSYSPLNHHPADIWAAHPSNYIMGNGHVSPPATASGLSPPASRSSNSSAELPTGVTASQHNTYKWMHTKRSQRPAAPKKKVIDENGTNRTNFTTHQLTELEKEFHTAKYVNRTRRTEIASNLKLQEAQVKIWFQNRRMKEKKREKEKAFLARNTWESNSPTSSCSGEDVKNFK | not soluble |
| MQSTVAFISHRSTHKDFVRKIVDTVKRDNCIVDEFDFYPATKTVNEIVRNLNFAPIFVLLISKDALESDWIKLEMSKARQLYDTGVIREFMPFIIEEGVKLEELPSWMTRDWSLNIKTITSPKIIGQFIIETQRKIRCVGNNAYGNWINTFIGRSNELDEFQRAMYDSVYMPHRSLIVSGKPGSGRTRFIQKCIQDSSGLSFIPEGFQIKLPQKTYLDNFILQLHEGLGFSKASYEDILKLDHEHQITKCVSYINQIINAHSFLLIEDEMSFVSYDGTISEWGKEIISHPAMIDSLKIFISSRVKPRYSELRAYPQIIHINLSGFTKDERKRLFVNCCRYYNVQLNDSDVDFFVDRLQSSPQQLEQAVREIKDKNVRFAKKDIKNLIAIGDEVFSRVISWFKGDETALTLAKVLAEVDMISFDLLEQLYEEDYPKIEQLVNNFESLSILDFYGPGGNNISLDGGVSDYIRRSKLDLDPIMKTRIEEIIFNKIDTAEDDLGELSIFLHDLRKQLLSGKGFAYVMPSIVISTVIDLYNQGSYDSVKDICLHALEHCSSYTEEPLQELYYRLCQVLARMKDRIFFTYIDKIKDKGSKDFLYGFYYRYKEDYSKAEEYLLKALDFNSNMQIARRELVNVYLNQEKYTKALPLAKENYNRKSTNSYHIEAYFRCLLNHYPWNTETEDTLNRLLKEMEENFSKRKDELLASMQLEYFIKSRNHTKEEIKEKIQETLIVYPNSPQVYRIKEEFERDKSRFCKSCNC | not soluble |
| MEFIVCNGCGCSPSKRQFFITACSHVFCETCRTTPTADFCHLCKIPTKTLKMDASLPKNVKKMFGDVGVMSTDIHKRLARVIGFQKIQKSIQLKMENKKSVMRKEQTKKVEKKTEEMHCQLSKLTSFEENNRKKLEDIERENEKLRNLISALELKVASSRDIDDDEFFMQGTPTSSNPSVAGSDVDNDELLDYDLLGLRNRSDSSSSNCSSQSNRGGSLF | not soluble |
| MSDSRYKVDVSVVTRFLAEQSQPEQNRFAFAYTITVHNNGELPAKLLSRHWIITDGDGHVEEVRGEGVVGQQPLIKVGQSHTYSSGTVMTTQVGNMQGSYQMLAEDGKRFDAVIEPFRLAVPGSLHLEHHHHHH | soluble |
| MGHHHHHHSHMRLSQKWQVINQRSLLCGEDEAADENPESQEMLEEQLVRMLTREVMDLITVCCVSKKGADHSSAPPADGDDEEMMATEVTPSAMAELTDLGKCLMKHEDVCTALLITAFNSLAWKDTLSCQRTTSQLCWPLLKQVLSGTLLADAVTWLFTSVLKGLQMHGQHDGCMASLVHLAFQIYEALRPRYLEIRAVMEQIPEIQKDSLDQFDCKLLNPSLQKVADKRRKDQFERLIAGCIGKPLGEQFRKEVHIKNLPSLFKKTKPMLETEVLDNDGGGLATIFEP | not soluble |
| MNSVITQKVSSGVTLYADTKTGGFMNRTILVPIDISDSELTQRVISHVEAEAKIDDAEVHFLTVIPSLPYYASLGLAYSAELPAMDDLKAEAKSQLEEIIKKFKLPTDRVHVHVEEGSPKDRILELAKKIPAHMIIIASHRPDITTYLLGSNAAAVVRHAECSVLVVR | not soluble |
| MNGTLDHPDQPDLDAIKMFVGQVPRTWSEKDLRELFEQYGAVYEINVLRDRSQNPPQSKGCCFVTFYTRKAALEAQNALHNMKVLPGMHHPIQMKPADSEKNNAVEDRKLFIGMISKKCTENDIRVMFSSFGQIEECRILRGPDGLSRGCAFVTFTTRAMAQTAIKAMHQAQTMEGCSSPMVVKFADTQKDKEQKRMAQQLQQQMQQISAASVWGNLAGLNTLGPQYLALLQQTASSGNLNTLSSLHPMGGLNAMQLQNLAALAAAASAAQNTPSGTNALTTSSSPLSVLTSSGSSPSSSSSNSVNPIASLGALQTLAGATAGLNVGSLAGMAALNGGLGSSGLSNGTGSTMEALTQAYSGIQQYAAAALPTLYNQNLLTQQSIGAAGSQKEGPEGANLFIYHLPQEFGDQDLLQMFMPFGNVVSAKVFIDKQTNLSKCFGFVSYDNPVSAQAAIQSMNGFQIGMKRLKVQLKRSKNDSKPY | soluble |
| MGSDKIHHHHHHMIIRAGYNIAFQCFQETPINLLLSVHPSRAQHVIGEHVIKFSPDVPSHDFTDMFGNVCTRIVAPAGRIDISNDFLIEDTGLPDEVAPGAREIPVAELPDEVMVYLLGSRYCDTDKLATLAWSMFGGIPSGWQRVQAIVDYVHNHITFGYQFARNDRTASEGHAEQIGVCRDFAHLAVTLCRCMNIPARYCTGYLGDIGVPQDPAPMDFSAWFEVYLDGRWYTFDARHNHPRIGRIVIARGRDAADVAISTSFGTANLLNFEVITHEVTDQAAVTDARLQKVA | not soluble |
| MPSGGQRKHTISNKTRKRPGKDLDQIHEDLKPEKAAKLLQQEIDYDLPGNGQFYCIECERHFVDEKTRQLHRKTKLHKNRVKTLKEVPYTQAEANAAGGSGFFPAITLKTRVELPKQPEIPIPVVAET | soluble |
| MSLYYVTEDDVDKNFDMKAAINAVREAFEEYGKGRAYSSTRVRTFSQDGVLNTMPAAMEKYHISGLKSYYATRNGAKFVVVLFDTAADELLAIIEANRLGQIRTGAVTAYATSILHKNVEIFAIIGSGFQAETQLEGMLKVANPTEIRVYSRNQEHARNFSERSSKKFGVSIRAVESAEAALIGADTITTITNSNVPIVYRKYLGDEYHINLAGSNYINRREAESAVLSDANIVVTEHLEQSLIESVEISEYVKLGGKPIELKDVAVDPTRYSKFHRTVFKSMGIGLEDIISGYAVLKNMGIIEGHHHHHH | soluble |
| MGSDKIHHHHHHMGEELPVSQPVDQRPLEHQDHCQAAEPAAMDPPAGEDFYEKDFITYLSDENEQEISRAFIVANPGMVKFHFVDKVYEQLALKDKQVDTAIYSEVLPDPPLSQAIKIAKQMKKFAPDTIIAIGGGSALDVSKIARYIYEYSLDQEDGWLDIYDNVSELIKELQQKFVDIRKRIVKFKHETRTSLVMTRSLKAPS | not soluble |
| MSPGPQSGGQERGSMERKMVELEDTGLTFATEVDLERLQALAAEWLQVIGEDPGREGLLKTPERVAKAWAFLTRGYRQRLEEVVGGAVFPAEGSEMVVVKGVEFYSMCEHHLLPFFGKVHIGYIPDGKILGLSKFARIVDMFARRLQVQERLAVQIAEAIQEVLEPQGVGVVVEGVHLCMMMRGVEKQHSRTVTSAMLGVFRENQKTREEFLSHLRDGTA | soluble |
| MSLAQAMKIAIVDDEQDMRQSISQWLALSGYDTETFASAEEALKVLGSEYPGIVISDIKMPGMDGMQFLKKLMGADSSLPVIMITGHGDVPMAVEAMRVGAFDFLEKPFNPDRMSDLAKRASNARRLTLDNRALRRELSDGGQIMKKLIGTSPVMERLREDILDLGQADGHVLIDGETGTGKTLVAHALHAVGSRAGKKFVLVSCSALEEEALAKRLFGPMIPEDAQLPAIEEARGGTLVLEDVESLSDALQAKLLSVMNQQGTPAETRIVAISNLQEAGKTSEDVLRPDLFYRLAALRLTMPPLRQRGEDILTLFTRLSEQFAEEYGCDAPQVSAQEAAQLLQAPWPGNVRQLINIAERAVLQARRGSGTIASLLMSDHEDEGHHHHHH | soluble |
| MSLAESVFAERIVQNLLDTDFYKLTMMQAVLHNYPNAEVEWEFRCRNAEDLRPYLAEIRYQIERLAEVEVTADQLAFLERIPFMKPDFIRFLSLFRFNLRYVHTGIEDGQLAIRLRGPWLHVILFEVPLLAIVSEVRNRYRYREVVLEQVGEQLYRKLDWLSAQASSEELAEFQVADFGTRRRFSYRTQEEVVHILKRDFPGRFVGTSNVHLAREYDLKPIGTMAHEWLMAHQQLGPRLVDSQQAALDCWVREYRGQLGIALTDCITMDAFLDDFDLYFAKLFDGLRHDSGDPLAWAEKAIAHYRRLGIDPLSKTLVFSDGLDMPKALQLFRALRGKINVSFGIGTNLTCDIPGVEPMNIVLKMTACNGHPVAKISDAPGKTQCRDENFVAYLRHVFNVPAEGHHHHHH | soluble |
| MGHHHHHHSHMEQFEVIKQQKEIIEHGIELFNKKPKRGIQFLQEQGMLGTSVEDIAQFLHQEERLDSTQVGDFLGDSARFNKEVMYAYVDQLDFCEKEFVSALRTFLEGFRLPGEAQKIDRLMEKFAARYIECNQGQTLFASADTAYVLAYSIIMLTTDLHSPQVKNKMTKEQYIKMNRGINDSKDLPEEYLSSIYEEIEGKKIAMKETKELT | soluble |
| MPNTADQVDPLLASLSHFVDHTDLLAEHTMNAVEWEAVEVLMPRILRGKSKEDVKQLLLAEIDGMSKKRLDAVLAGETLEESSSSEDEEEQVIGSAGESEKSESPEIPEPEAKMEEQAVEAAEASEASDDGREDGEIRDDQGNTTSTPPDPGSPKSPEKGEAEQLDTDEEIDRLLEEDLEDFL | soluble |
| MSLKLYYQQAMLLPKTKEILLRWEGVLSAGQRKASNAVVINLKGKMDMLLWAVAGSGKTEMMFEGMDWALRQGFRICVASPRVDVCLELLPRLKEAFPSMDIVCLYGDSKDNYQGEQFVIATTHQLIRFYETFQVIFIDEVDAFPYAKDPFLEYAVMKARTKEGSTIIITATPEKKWQEECVKGKRNFVKIPGRYHREGHHHHHH | soluble |
| MIGGSGRFLVNLESLNGVESIGNLTKHRTAPVVLKTSTGYLVRYVPVISGEALAHAYQASLVDIAKKEGLPVGNLSSQYEFIKFSTDEALKIEGIKEPKDYNDARRFEVEVMLKDVIADVGGFMYAGSAPVRRTSRIKLGYMIPALRGDEIPAQLEAQFHVRFSNKPVKGSQAIFNVEVSSALYTFSFELDEDLIAVPSTVGEKVKGEEELERQKARRVDSAIKALYSLLAGNFGGKRSRFLPSMKLMSLVVVKTDFPFIPEPGHDDSYIKTTVMRLEKAKSVLNGNVAKVYVINNEGIEVGEGATVLSSVEDLVAKLKEK | not soluble |
| MAATITDDIVATVLESIEEKSYEDEKEKAGMIKDEANQFFKDQVYDVAADLYSVAIEIHPTAVLYGNRAQAYLKKELYGSALEDADNAIAIDPSYVKGFYRRATANMALGRFKKALTDYQAVVKVCPNDKDARAKFDECSKIVRRQKFEAAISTDHDKKTVAETLDINAMAIEDSYDGPRLEDKITKEFVLQLIKTFKNQQKLHKKYAFKMLLEFYNYVKSLPTMVEITVPTGKKFTICGDVHGQFYDLCNIFEINGYPSETNPYLFNGDFVDRGSFSVETIFTMIGFKLLYPNHFFMSRGNHESDVMNKMYGFEGEVKAKYTQQMCDMFTETFCWLPLCHLINEKIFVCHGGLFKEDGVTLEDIRKTDRNRQPPDEGIMCDLLWEKNWKNLKILYPDGKINKNSNCQPKTCKNASDPQPINGRSPSKRGVGCQFGPDVTSKWCETNGIEYVVRSHEVKPEGYEMHHNGQCFTVFSAPNYCDQMNNKGAFITITGDNLTPRFTPFDAVPHPKLPPMAYANSLFGFN | not soluble |
| MAHHHHHHMAASLSSSPVRHPIVDNAAVPAASHRIPPPLNGFAFLEHRRSALSHDTFIARDVRQQQHPEQQDNDPAKVIIRVYALEYLRRDEECRFALERECLTARLVVHPHLLPLGAPFASKTDLFVVEKYCAGGDLYELMVSLAKEDPIASEMGAAKGEAPPRSSTGLPTNTVKRFMRELLSAVQYLHRTCGLVHRNIKLETLFIDEEQHLRLGGFGLCAVLPPPSVVTGDREGALDAPDAPEDTASSSHEPLRLCCGSKHYAAPELVQGHPYQGEGVDAWACGVVLFALLTSCFPFDSDDGDEALFRLLCGDVEAHLAQHPAMAAIEDPQACDLVRNLLRPNPNARYTVSEALEHPYLWVA | not soluble |
| SSPEYAMEGIFSVKSDVFSFGVLVLEIVSGKRNRGFHNSGQDNNLLGYTWENWKEGKGLEIVDSIIVDSSSSMSLFQPHEVLRCIQIGLLCVQERAEDRPKMSSVIVPFCTR | soluble |
